From patent US20210380679A1 (INHIBRX BIOSCIENCES, published 2021) come the findings set out here.

Assay [1] deals with T1, human DLL3 (Delta-like ligand 3) (human, UniProt Q9NYJ7 27-618).
T1 construct: endogenous on SHP-77 cells; also called cell-surface DLL3
T1 sequence: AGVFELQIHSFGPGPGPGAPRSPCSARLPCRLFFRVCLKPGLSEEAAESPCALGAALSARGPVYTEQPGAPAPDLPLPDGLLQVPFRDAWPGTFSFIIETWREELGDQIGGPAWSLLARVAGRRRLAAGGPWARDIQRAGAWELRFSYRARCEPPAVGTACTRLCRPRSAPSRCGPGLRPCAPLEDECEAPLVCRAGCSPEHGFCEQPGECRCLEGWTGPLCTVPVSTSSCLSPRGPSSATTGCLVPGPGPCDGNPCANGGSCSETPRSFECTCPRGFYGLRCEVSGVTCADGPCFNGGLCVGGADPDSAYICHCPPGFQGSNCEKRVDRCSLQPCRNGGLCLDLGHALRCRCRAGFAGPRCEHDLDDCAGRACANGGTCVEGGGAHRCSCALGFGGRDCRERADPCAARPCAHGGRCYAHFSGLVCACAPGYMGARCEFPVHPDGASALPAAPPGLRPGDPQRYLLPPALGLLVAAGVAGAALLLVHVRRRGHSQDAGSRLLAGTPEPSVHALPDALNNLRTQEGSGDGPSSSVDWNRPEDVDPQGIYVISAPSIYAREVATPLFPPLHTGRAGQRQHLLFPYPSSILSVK
Kind of assay: flow cytometry, sdAb-Fc titrated on 293FS cells transfected with DLL3 (panel title DLL3-FL), APC anti-human Fc secondary. How it is done: FIGS. 2A-L set forth a series of graphs depicting the ability of sdAb and humanized variants thereof targeting DLL3 to bind cell surface DLL3.
(§1) Specificity and relative affinity were assessed for purified sdAb-Fcs on DLL3-expressing cells. […] A titration series of the fusion protein was incubated with the DLL3-expressing cell lines (approximately 2.5×10⁴ to 5×10⁴ cells/well) for 30 minutes at 4 degrees Celsius in FACS Buffer (PBS 1% BSA, 0.1% NaN₃ pH 7.4) in 96-well plates. Following three wash steps in FACS buffer, an APC-conjugated anti-human Fcγ specific secondary antibody (Jackson ImmunoResearch) was added and incubated for 30 minutes at 4 degrees Celsius. Following three additional wash steps in FACS buffer bound antibody was detected via flow cytometry (IQue Intellicyte).

The target in assay [2] is T1, human DLL3 (Delta-like ligand 3). Kind of assay: flow cytometry, sdAb-Fc titrated on SHP-77 cells (DLL3 positive), APC anti-human Fc secondary. The procedure: as §1
Assay [3] deals with T2, CD3 on the surface of T cells (human, UniProt P07766 23-207).
T2 construct: whole, on cells; multi-chain complex; also called CD3 epsilon
T2 sequence (P07766 23-207): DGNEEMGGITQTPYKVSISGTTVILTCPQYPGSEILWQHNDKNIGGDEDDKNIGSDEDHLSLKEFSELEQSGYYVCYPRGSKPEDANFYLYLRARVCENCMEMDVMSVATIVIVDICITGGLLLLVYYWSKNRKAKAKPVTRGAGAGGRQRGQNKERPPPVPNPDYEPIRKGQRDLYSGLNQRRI
Description: flow cytometry, primary human T cells. How it is done: (§2) Binding of exemplary DLL3-targeting constrained CD3 engaging constructs of the disclosure, referred to herein as cx4720, cx3715, cx4422, cx3708, cx4052, cx3985, cx4059, cx4087, cx4088, cx4895, cx3991, cx3711, cx4887, cx4896, cx4899, cx4406, cx3707, cx3710, cx4888 and cx4890, to CD3 on the surface of primary T cells was assessed via flow cytometry (SONY SA3800 spectral analyzer) using T-cell that were negatively enriched from PBMCs isolated from healthy human donor leukopaks. Representative DLL3-targeting constrained CD3 engaging constructs were assessed for binding to T cells and DLL3 expressing cells (SHP-77). Bound cx4720, cx3715, cx4422, cx3708, cx4052, cx3985, cx4059, cx4087, cx4088, cx4895, cx3991, cx3711, cx4887, cx4896, cx4899, cx4406, cx3707, cx3710, cx4888 and cx4890 was detected with fluorophore-conjugated secondary antibodies specific for the human Fc and binding was measured by flow cytometry. Cells incubated with secondary antibody only served as negative controls.
(§3) Table E4 summarizes the affinity of exemplary molecules for DLL3 or CD3, as determined from flow cytometry, in these studies.

Assay [4] addresses T1, human DLL3 (Delta-like ligand 3). Kind of assay: flow cytometry, SHP-77 cells. How it is done: as §2, §3

Positions count from the first letter of the chain named. A value given as a limit tells only on which side of the number the result lay.

B1: hz5A8v5 (Fc fusion)
VHH: EVQLVESGGGEVQPGGSLRLSCAASGSIFSINAMGWYRQAPGKQRELVAVVSSDGRTTVAPSVKGRFTISRDNAKNTVYLQMSSLRAEDTGVYYCGVREWYSDSDWRDYEGQGTLVTVKP
notes: tested as VHH-human Fc; Fc not specified
B1: the concentration giving a half-maximal response (EC50 (read off the curve)) in assay [1] is roughly 3 nM.

B2: 6B4 (Fc fusion)
VHH: QVTLRESGGGLVQAGGSLRLSCGASEITLSDKTVGWYRQAPGKQRVLVAVISNVDSTNYAHSVKGRFTISRDNAKNTVYLQMNSLKPEDTAVYYCYARDFEAEYWGQGTLVTVKP
notes: as for B1
As for B2, the binding result in assay [2] is reported as “binds”.

B3: L6F1 (Fc fusion)
VHH: B2 VHH with T3Q, R5V, E6Q, T28I, L29F, H61Q, A102S, Q107R, L110Q
notes: as for B1
Regarding B3, in assay [2], the binding result was “binds”.

B4: 3B12 (Fc fusion)
VHH: QVQLQESGGGLVQSGGSLRLSCAASGFSLDDYTIGWFRQAPGKEREGVSCISSSGGSTYYADSVKGRFTISRDNAENTVYLQMNSLKPEDTAVYYCATYCPVTIADELGFDYWGQGTLVTVKP
notes: as for B1
Turning to B4, in assay [2], the binding result is reported as “binds”.

B5: L5A8 (Fc fusion)
VHH: QVQLVQSGGGLVQAGESLRLSCAASGSIFSINAMGWYRQVLGKQRELVAVVSSDGRTTVAPSVKGRFTISRDNAKNTVSLQMNSLKPEDTGVYYCGVREWYSDSDWRDYEGQGTQVTVKP
notes: as for B1
B5: in assay [1], the 50% effective concentration (EC50 (read off the curve)) was roughly 10 nM.

B6: cx4896 (bispecific antibody)
chain 1: EVQLVESGGGEVQPGGSLRLSCAASGSIFSINAMGWYRQAPGKQRELVAGFTGDTNTIYAESVKGRFTISRDNAKNTVYLQMSSLRAEDTAVYYCAADVQLFSRDYEFYWGQGTLVTVKPDKTHTCPPCPAPGGPSVFLFPPKPKDTLMISRTPEVTCVVVDVSHEDPEVKFNWYVDGVEVHNAKTKPREEQYNSTYRVVSVLTVLHQDWLNGKEYKCKVSNKALPAPIEKTISKAKGQPREPQVYTLPPCRDELTKNQVSLWCLVKGFYPSDIAVEWESNGQPENNYKTTPPVLDSDGSFFLYSKLTVDKSRWQQGNVFSCSVMHEALHNHYTQKSLSLSPTGGGGGSGGGGGSGGGGGSEVQLVESGGGLVQPGGSLRLSCAASGFTFNTYAMNWVRQAPGKCLEWVARIRSKYNNYATYYADSVKGRFTISRDDAKNTLYLQMSSLRAEDTAVYYCVRHGNFGNSYVSWFAYWGQGTLVTVKPEVQLVESGGGEVQPGGSLRLSCGPSEIITSDKSVGWWRQAPGKQRNLVAGISNVGSTNYAQSVKGRFTISRDNAKNTLYLQMSSLRAEDTAVYYCYARDFENEYWGQGTLVTVKP
chain 2: DKTHTCPPCPAPGGPSVFLFPPKPKDTLMISRTPEVTCVVVDVSHEDPEVKFNWYVDGVEVHNAKTKPREEQYNSTYRVVSVLTVLHQDWLNGKEYKCKVSNKALPAPIEKTISKAKGQPREPQVCTLPPSRDELTKNQVSLSCAVKGFYPSDIAVEWESNGQPENNYKTTPPVLDSDGSFFLVSKLTVDKSRWQQGNVFSCSVMHEALHNRYTQKSLSLSPTGGGGGSGGGGGSGGGGGSQAVVTQEPSLTVSPGGTVTLTCGSSTGAVTTSNYANWVQQKPGQAFRGLIGGTNKRAPGVPARFSGSLLGGKAALTISGAQPEDEADYYCALWYSNHWVFGCGTKLEIKEVQLLESGGGEVQPGGSLRLSCAASGFSFSINAMGWYRQAPGKRREFVAAIESGRNTVYAESVKGRFTISRDNAKNTVYLQMSSLRAEDTAVYYCGLLKGNRVVSPSVAYWGQGTLVTVKP
notes: also carries a 41BB sdAb
On to B6, for which the dissociation constant Kd in assay [3] was greater than 200 nM; in assay [4], 0.339 nM.

B7: cx4720 (bispecific antibody)
chain 1: EVQLVQSGGGLVQAGGSLRLSCAASGSILSINAMGWYRQPPGKQREMVAGFTGDGNTIYADSVKGRFTISRDNAKNTVYLQMNSLKPEDTAVYYCAADVQLFSRDYEFYWGQGTQVTVKPDKTHTCPPCPAPGGPSVFLFPPKPKDTLMISRTPEVTCVVVDVSHEDPEVKFNWYVDGVEVHNAKTKPREEQYNSTYRVVSVLTVLHQDWLNGKEYKCKVSNKALPAPIEKTISKAKGQPREPQVYTLPPCRDELTKNQVSLWCLVKGFYPSDIAVEWESNGQPENNYKTTPPVLDSDGSFFLYSKLTVDKSRWQQGNVFSCSVMHEALHNHYTQKSLSLSPTGGGGGSGGGGGSGGGGGSEVQLVESGGGLVQPGGSLRLSCAASGFTFNTYAMNWVRQAPGKCLEWVARIRSKYNNYATYYADSVKGRFTISRDDAKNTLYLQMSSLRAEDTAVYYCVRHGNFGNSYVSWFAYWGQGTLVTVKPEVQLQESGGGLVQAGGSLRLSCGPSEIITSDKSVGWWRQAPGKQRNLVAGISNVGSTNYAQSVKGRFTISRDNAKNTLFLQMNSLKPEDTAVYYCYARDFENEYWGRGTQVTVKP
chain 2: B6 chain 2
notes: also carries a 41BB sdAb
As for B7, the values for the Kd in assay [3] and in assay [4] were greater than 200 nM and 0.115 nM, respectively.

B8: cx4888 (bispecific antibody)
chain 1: B6 chain 1 with G509A, P510A, Y565F
chain 2: B6 chain 2
notes: also carries a 41BB sdAb
For B8, the Kd in assay [3] is greater than 200 nM; in assay [4], 0.134 nM.

B9: L10D9 (Fc fusion)
VHH: EVQLVQSGGGLVQAGGSLRLSCAASGSILSINAMGWYRQPPGKQREMVAGFTGDGNTIYADSVKGRFTISRDNAKNTVYLQMNSLKPEDTAVYYCAADVQLFSRDYEFYWGQGTQVTVKP
notes: tested as VHH-human Fc
B9: in assay [2], the binding result is listed as “binds”.

B10: L8E7 (Fc fusion)
VHH: EVQLQESGGGLVQAGGSLRLSCGPSEIITSDKSVGWWRQAPGKQRNLVAGISNVGSTNYAQSVKGRFTISRDNAKNTLFLQMNSLKPEDTAVYYCYARDFENEYWGRGTQVTVKP
notes: as for B1
As to B10, in assay [2], the binding result is recorded as “binds”.

B11: hz8E7v10 (Fc fusion)
VHH: B10 VHH with Q5V, L11E, A14P, N46E, F79Y, N83S, K86R, P87A, R107Q, Q110L
notes: as for B1
Take B11: the binding result in assay [1] is on record as “binds”.

B12: hz8E7v6 (Fc fusion)
VHH: B10 VHH with Q5V, L11E, A14P, T29F, F79Y, N83S, K86R, P87A, R107Q, Q110L
notes: as for B1
For the molecule B12, the binding result in assay [1] is on record as “binds”.

B13: hz8E7v9 (Fc fusion)
VHH: B10 VHH with Q5V, L11E, A14P, W37V, F79Y, N83S, K86R, P87A, R107Q, Q110L
notes: as for B1
Turning to B13, in assay [1], the binding result is on record as “binds”.

B14: hz8E7v11 (Fc fusion)
VHH: B10 VHH with Q5V, L11E, A14P, W37F, F79Y, N83S, K86R, P87A, R107Q, Q110L
notes: as for B1
Regarding B14, in assay [1], the binding result is given as “binds”.

B15: hz8E7v5 (Fc fusion)
VHH: B10 VHH with Q5V, L11E, A14P, L78V, F79Y, N83S, K86R, P87A, R107Q, Q110L
notes: as for B1
On to B15, for which the binding result in assay [1] is recorded as “binds”.

B16: 3B4 (Fc fusion)
VHH: QVQLQQSGGGLVQAGGSLRLSCAASGSDFSINAMGWYRQGELVAGFTGDGNPIYADSVKGRFTISRGNAENTVSLQMNSLKPEDTAVYYCAADVKIGGDYEWYWGQGTQVTVKP
notes: as for B1
With B16, the “EC50 (read off the curve)” value in assay [2] was roughly 0.06 nM.
